Data reported in publication PMC11910092, “Modulating the complement system through epitope-specific inhibition by complement C3 inhibitors” (The Journal of Biological Chemistry, 2025).

Assays:
Assay in all cases: ELISA; plate coated with 2 ug/ml C3, C3b or recombinant C345C domain overnight at 4 °C; MI3 dilution series in PBST, 37 °C, 1 h; detected with HRP anti-His antibody (HRP anti-VHH antibody for the C345C domain)
Details in all cases: both partners purified
complement C3 = target: T1, complement C3 (Homo sapiens (plasma-derived), UniProt P01024)
T1 construct: Bought protein; it works with normal human serum and anti-human detection antibodies; source: bought: Complement Technology (cat#A113)

complement C3b = target: T2, complement C3b (Homo sapiens (plasma-derived), UniProt P01024)
T2 construct: Bought protein; source: bought: Complement Technology (cat#A114)

[1] = target: T3, recombinant C345C domain of C3 and C3b (Homo sapiens)
T3 construct: C345C domain of complement C3; also called C345C domain (recombinant expression); source: HEK293-F, transfected (pCDNA3.1(+)), secreted, purified (Ni-NTA agarose, anion exchange GigaCap Q-650M)
T3 chain: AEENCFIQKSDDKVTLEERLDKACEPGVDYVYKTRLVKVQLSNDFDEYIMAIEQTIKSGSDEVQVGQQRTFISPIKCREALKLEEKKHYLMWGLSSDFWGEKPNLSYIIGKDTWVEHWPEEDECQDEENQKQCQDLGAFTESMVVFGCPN

T2 sequence (P01024 23-667): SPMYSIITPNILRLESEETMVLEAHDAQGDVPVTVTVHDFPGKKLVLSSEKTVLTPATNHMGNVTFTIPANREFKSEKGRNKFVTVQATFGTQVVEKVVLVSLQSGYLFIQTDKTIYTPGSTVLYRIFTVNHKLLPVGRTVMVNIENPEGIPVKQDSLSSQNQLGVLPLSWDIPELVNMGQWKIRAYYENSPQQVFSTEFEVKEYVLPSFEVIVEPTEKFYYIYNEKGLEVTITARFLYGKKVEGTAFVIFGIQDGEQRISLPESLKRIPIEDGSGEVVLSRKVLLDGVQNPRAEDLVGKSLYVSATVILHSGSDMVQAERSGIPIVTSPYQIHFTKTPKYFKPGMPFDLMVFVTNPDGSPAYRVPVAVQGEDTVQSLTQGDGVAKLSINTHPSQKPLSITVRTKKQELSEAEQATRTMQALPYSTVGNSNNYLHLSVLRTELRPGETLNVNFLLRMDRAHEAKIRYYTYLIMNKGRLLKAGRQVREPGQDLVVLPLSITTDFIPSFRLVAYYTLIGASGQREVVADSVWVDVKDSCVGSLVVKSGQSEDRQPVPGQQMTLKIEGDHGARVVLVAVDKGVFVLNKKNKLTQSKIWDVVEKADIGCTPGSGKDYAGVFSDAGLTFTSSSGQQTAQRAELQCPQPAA
T1 sequence (P01024 23-667): as above

B1: MI3 (nanobody) (VHH)
VHH: DVQLQESGGGLVQPGGSLRLSCVASGSTFSTYHMGWYRQAPGKQRELIAGITSGGRISYVDSVKGRFNISRDNAKNTVYLQMNTLKPEDTAVYYCNMLGEFAGRPPWGQGTQVTVSS
notes: proprietary nanobody; Provided by Quaerite Biopharm Research; source: HEK293-F, transfected (pCDNA3.1(+)), secreted, purified (Ni-NTA agarose, ion exchange GigaCap Q-650S); not shown: 6xHis (after a GGGGS linker), C-terminal, kept
Q: How did the EC50 (complement C3) turn out when B1 was run?
A: The EC50 was 170 pM.

Q: What about the EC50 (complement C3b) of the same binder?
A: Its EC50 is 140 pM.

Q: And the EC50 [1]?
A: Its EC50 is 190 pM.
